Results from patent US10716830B2, “ERBB4 activator screening assay” (Children's Hospital Los Angeles, priority 2011, dated 2020).

Tests used:
[1] = tested on: EGFR, ErbB2, ErbB3, and ErbB4; assay: ErbB receptor phosphorylation by western blot with phospho-specific antibodies; assay type: cell-based, mouse; conditions: YAMC-B4 cells (human ErbB4 construct); 10 min; HRG-1β 100 ng/ml, NRG4, EGF 10 ng/ml
Excerpt: (§1) Conditionally immortalized, non-transformed young adult mouse colon (YAMC) epithelial cells were provided by Dr. Robert Whitehead (Whitehead, R. H., VanEeden, P. E., Noble, M. D., Ataliotis, P., and Jat, P. S. (1993) Proc Natl Acad Sci USA 90, 587-591). These cells express low levels of endogenous ErbB4; YAMC-B4 cells expressing a human ErbB4 construct were generated as previously described (Frey, M. R., Edelblum, K. L., Mullane, M. T., Liang, D., and Polk, D. B. (2009) Gastroenterology 136, 217-226). […]
(§2) Cell lysates were extracted in modified RIPA buffer as previously described (Frey, M. R., Dise, R. S., Edelblum, K. L., and Polk, D. B. (2006) Embo J 25, 5683-5692), cleared by centrifugation, and boiled in Laemmli sample buffer. Samples were separated on SDS-polyacrylamide gels (6-10% as appropriate), blotted on PVDF membranes, and subjected to quantitative immunoblot using the Li-Cor Odyssey infrared detection system. Equal loading was monitored by immunoblots for actin and at least one additional protein.
Phosphorylation of EGFR, ErbB2, ErbB3, and ErbB4 was determined by western blot analysis of cell lysates using phospho-specific antibodies. […]

[2] = tested on: Akt; assay: Akt phosphorylation in colon epithelium of injected mice; assay type: in vivo, mouse; conditions: mice injected with NRG4, with or without TNF plus IFN-γ; 24 h
Description: (§3) All animal use was approved and monitored by the Children's Hospital Los Angeles Institutional Animal Care and Use Committee. […] Cytokines, growth factors, and inhibitors were given by intraperitoneal injection. 24 h after injections, mice were sacrificed and colons collected either for fixation and embedding or for epithelial lysates. For the latter, colons were incubated in Cell Recovery Solution (BD Biosciences, San Jose, Calif.) for 1 h at 4° C.; crypts were released by vigorous shaking and collected by centrifugation, similar to as previously described (Whitehead, R. H., and Robinson, P. S. (2009) American journal of physiology. Gastrointestinal and liver physiology 296, G455-460). Collected crypts were lysed and processed similar to cultured cells as below. For murine colitis, IL-10^−/− mice on C57Bl/6 background were maintained unchallenged until 32-36 weeks of age, at which point knockout mice but not wild-type animals have extensive inflammatory cytokine-driven colitis (Kuhn, R., Lohler, J., Rennick, D., Rajewsky, K., and Muller, W. (1993) Cell 75, 263-274).
Tissues and cells were fixed with 4% paraformaldehyde (Electron Microscopy Sciences, Hatfield, Pa.). […] For immunofluorescence, slides were mounted with Vectashield medium containing DAPI (Vector Laboratories, Burlingame, Calif.). […]

[3] = tested on: YAMC-B4 cells; assay: Cell migration/restitution (modified scratch) assay; assay type: cell-based, mouse; conditions: 8 h
Description: Cells grown on fibronectin-coated plates were subjected to multiple circular wounds with a rotating silicone probe as previously described (Corredor, J., Yan, F., Shen, C. C., Tong, W., John, S. K., Wilson, G., Whitehead, R., and Polk, D. B. (2003) American journal of physiology. Cell physiology 284, C953-961). Cultures were photographed immediately and 8 h after wounding; % closure was determined by measuring wounds in Image.
To test the potential effect of NRG4-ErbB4 signaling on cell motility, we used a modified scratch assay for restitution/migration (Corredor, J., Yan, F., Shen, C. C., Tong, W., John, S. K., Wilson, G., Whitehead, R., and Polk, D. B. (2003) American journal of physiology. Cell physiology 284, C953-961). Over an 8 h period, NRG4 had no effect on the rate at which YAMC-B4 cells moved into the denuded area of a culture plate (FIG. 4C), while in contrast EGF caused a 54% increase in migration over control.

[4] = tested on: ERK MAPK; assay: ERK MAPK phosphorylation in whole cell lysates by western blot; assay type: cell-based, mouse; conditions: YAMC-B4 cells; NRG4 100 ng/ml, 10 min
Excerpt: as §2
(§4) To identify signaling pathways which could be involved in NRG4-stimulated cell survival, we exposed YAMC-B4 cells to NRG4 or EGF and prepared whole cell lysates for western blot analysis. […] Furthermore, COX-2 expression, which is induced by either HRG-1β or EGF after 6 h exposure, and is required for cell survival induced by ErbB4-EGFR dimers (Frey, M. R., Hilliard, V. C., Mullane, M. T., and Polk, D. B. (2010) Laboratory Investigation 90, 1415-1424), was not induced by NRG4. Thus, NRG4 promotes cell survival through pathways at least partly distinct from those activated by other ligands.

[5] = Experimental necrotizing enterocolitis (NEC) model
[6] = tested on: YAMC-B4 cells; assay: Cytokine (TNF plus IFN-γ)-induced apoptosis in cultured colon epithelial cells; assay type: cell-based, mouse; conditions: NRG4 100 ng/ml, TNF 100 ng/ml plus IFN-γ 150 U/ml, 6 h, p<0.03
Excerpt: as §1
Cultured mouse colonic epithelial cells expressing ErbB4 (YAMC-B4) cells were exposed to TNF (100 ng/ml) plus interferon (IFN)-γ (150 units/ml), with or without NRG4 (100 ng/ml). After 6 h, the cells were fixed and apoptosis was assessed by immunofluorescence analysis for cleaved caspase-3. When the YAMC-B4 cells were given 100 ng/ml NRG4, cells were protected from apoptosis induced by the 6 h exposure to the cytokine cocktail containing TNF (100 ng/ml) and IFN-γ (150 U/ml), as measured by immunofluorescence analysis for cleaved caspase-3 (FIG. 1B; 2.7-fold decrease with cytokines plus NRG4 vs. cytokines alone, p<0.03).

[7] = tested on: YAMC-B4 cells; assay: EdU proliferation assay; assay type: cell-based, mouse; conditions: 24 h stimulation
Description: (§5) Proliferative index in fixed colon specimens was assessed by immunohistochemical stain for Ki-67. In vitro, cells were exposed to vehicle or growth factors for 24 h, then labeled with 5-ethynyl-2-deoxyuridine (EdU) for 2 h and fixed. Nuclei were marked with DAPI, and incorporated EdU was detected using a Click-iT EdU kit (Invitrogen).
(§6) Most ErbB ligands stimulate multiple cellular processes, including proliferation and migration, in colon epithelial cells (Frey, M. R., Golovin, A., and Polk, D. B. (2004) J Biol Chem 279, 44513-44521). To determine if NRG4 is similarly broad in its cellular effects, we subjected YAMC-B4 cells to proliferation assays in the presence of NRG4. […] In vivo, the number of Ki67-positive nuclei per crypt in PBS vs. NRG4-injected mice was not altered 24 h post-injection (FIG. 4B).

[8] = Dextran sodium sulfate-induced acute murine colitis; assay type: in vivo, mouse; conditions: C57/BL6 mice, NRG4 100 μg/kg injected daily vs PBS
Description: 6-8 week-old male C57/BL6 mice were given 3% DSS in drinking water for 7 days and injected daily with either PBS or NRG4 (100 μg/kg). Weight-loss was monitored over the course of the experiment (FIG. 4D(i)). On day 7, mice were sacrificed; colons were excised, rolled and fixed. H&E sections were scored by a pathologist blind to the experimental conditions using a scoring system adapted from that of Dielman et al. (Dieleman, L. A., et al., Chronic experimental colitis induced by dextran sulphate sodium (DSS) is characterized by Th1 and Th2 cytokines. Clinical and experimental immunology, 1998. 114(3): p. 385-91) (FIG. 4D(ii)).

[9] = tested on: COX-2; assay: COX-2 expression in YAMC-B4 cells; assay type: cell-based, mouse; conditions: 6 h exposure
Description: as §4

[10] = tested on: colon crypts; assay: Ki-67 proliferative index in colon in vivo; parameters: species or system mouse; conditions: 24 h post-injection
Description: as §5, §6

[11] = tested on: Akt; assay: Akt phosphorylation in whole cell lysates by western blot; assay type: cell-based, mouse; conditions: YAMC-B4 cells; NRG4 100 ng/ml, 10 min
Excerpt: as §2, §4

[12] = tested on: rat intestinal epithelial cells; assay: Cronobacter sakazakii-induced apoptosis in cultured intestinal epithelial cells; assay type: cell-based
Excerpt: NRG4 inhibits CS-induced cell death.

[13] = tested on: colon epithelial cells; assay: Cytokine-induced colon epithelial apoptosis in vivo; parameters: species or system mouse; conditions: C57Bl/6 mice, NRG4 100 μg/kg i.p., TNF 250 μg/kg plus IFN-γ 250 U/g, 24 h
Description: as §3, with “For murine colitis, IL-10^−/− mice on C57Bl/6 background were maintained unchallenged until 32-36 weeks of age, at which point knockout mice but not wild-type animals have extensive inflammatory cytokine-driven colitis (Kuhn, R., Lohler, J., Rennick, D., Rajewsky, K., and Muller, W. (1993) Cell 75, 263-274).” left out
For apoptosis analysis in vivo, mice were injected i.p. with PBS/vehicle, TNF (250 μg/kg) plus IFN-γ (250 units/g), NRG4 (100 μg/kg), or NRG4 plus TNF and IFN-γ. […] Apoptosis was detected by in situ oligo ligation (ISOL; EMD Millipore, Billerica, Mass.) staining for DNA fragmentation on sections of paraffin-embedded tissue, and by cleaved caspase-3 western blot on homogenates.
24 hours after injections, colons were harvested. Apoptosis assessed by Western blot analysis for cleaved caspase-3 on isolated epithelial cells determined that NRG4 blocked cytokine-induced apoptosis in vivo (FIG. 3A, B; 3.6-fold decrease, p=0.012).

B1: Neuregulin-4 (protein, UniProt Q8WWG1 1-62, looked up)
extracellular domain: MPTDHEEPCGPSHKSFCLNGGLCYVIPTIPSPFCRCVENYTGARCEEVFLPGSSIQTKSNLF
modifications: ectodomain
notes: ErbB4-specific ligand
phosphorylation of EGFR, ErbB2, ErbB3, and ErbB4 [1]: activated only ErbB4 | Akt phosphorylation in colon epithelial cells versus controls (western blot, immunofluorescence) [2]: increased Akt phosphorylation | rate at which cells moved into the denuded area (migration), in words [3]: no effect | phosphorylation of ERK MAPK [4]: not ERK MAPK | protection of the small intestine ([5]; formula feeding/hypoxia model of necrotizing enterocolitis): protective | survival of rat pups ([5]; hypoxia/hypothermia model of NEC in rat pups, given by gavage with each feed): survive longer | decrease in apoptosis (cleaved caspase-3 immunofluorescence), cytokines plus NRG4 vs. cytokines alone [6]: 2.7 fold | cellular uptake of EdU (proliferation) vs. control, in words [7]: not different from control | colon shortening ([8]; 3% DSS 7 days): reduces | histologically detectable colonic damage ([8]; 3% DSS 7 days, blinded H&E score): reduces | weight loss ([8]; 3% DSS in drinking water 7 days): reduces | COX-2 expression [9]: not induced | number of Ki67-positive nuclei per crypt, PBS vs. NRG4-injected mice [10]: not altered | phosphorylation of Akt [11]: resulted in phosphorylation of Akt | Cronobacter sakazakii induced apoptosis [12]: attenuates | decrease in apoptosis, ISOL staining on fixed colon sections ([13]; p<0.0001): 3.1 fold | decrease in cytokine-induced apoptosis, cleaved caspase-3 western blot on isolated epithelial cells ([13]; p=0.012): 3.6 fold
